± gives the uncertainty stated by the source.
Test: self-splicing fitness, log relative to wild type (ln ratio); higher = more splicing; Tetrahymena group I intron in knt gene, E. coli kanamycin selection, DiMSum; sequences stand for … in CUCUCU…GGAGGGAAAAGUUAUCAGGCAUGCACCUGGUAGCUAGUCUUUAAACCAAUAGAUUGCAUCGGUUUAAAAGGCAAGACCGUCAAAUUGCGGGAAAGGGGUCAACAGCCGUUCAGUACCAAGUCUCAGGGGAAACUUUGAGAUGGCCUUGCAAAGGGUAUGGUAAUAAGCUGACGGACAUGGUCCUAACCACGCAGCCAAGUCCUAAGUCAACAGAUCUUCUGUUGAUAUGGAUGCAGUUCACAGACUAAAUGUCGGUCGGGGAAGAUGUAUUCUUCUCAUAAGAUAUAGUCGGACCUCUCCUUAAUGGGAGCUAGCGGAUGAAGUGAUGCAACACUGGAGCCGCUGGGAACUAAUUUGUAUGCGAAAGUAUAUUGAUUAGUUUUGGAGUACUCGUGGUCG
Procedure, shortened: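 A randomised library covering all eight P1ex-region intron nucleotides was built with the intron in the knt kanamycin-resistance gene on pET-22b(+) and held in E. coli BL21(DE3). Cells were grown overnight at 37°C or 30°C on LB agar, with or without 25 μg/mL kanamycin, plus 100 μg/mL carbenicillin, 50 μM IPTG and 0.2% rhamnose, and pooled colonies were amplicon-sequenced on an Illumina HiSeq 2500. DiMSum fitness is the error-weighted combination of wild-type-normalised replicate fold changes, kanamycin versus none.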

Sequence | self-splicing fitness (ln) (30 °C) | self-splicing fitness (ln) (37 °C)
ACAAAGCAAUAUUACGUAUA | -2.79 ± 0.2 | -2.09 ± 0.22
ACAAAGCAAUAUUACGUUAU | -2.81 ± 0.089 | -1.5 ± 0.089
ACAAAGCAAUAUUACGUUUG | -2.98 ± 0.1 | -1.65 ± 0.12
ACACAGCAAUAUUACGAACA | -1.69 ± 0.082 | -1.18 ± 0.079
ACACAGCAAUAUUACGACGC | -0.0854 ± 0.07 | 0.622 ± 0.093
ACACAGCAAUAUUACGAGGC | -3.49 ± 0.17 | -3.41 ± 0.29
ACACAGCAAUAUUACGAGUU | -3.49 ± 0.14 | -2.18 ± 0.14
ACACAGCAAUAUUACGAUCA | -1.39 ± 0.084 | -0.858 ± 0.095
ACACAGCAAUAUUACGAUGU | -3.46 ± 0.1 | -1.18 ± 0.08
ACACAGCAAUAUUACGCCGC | -3.21 ± 0.34 | -1.68 ± 0.16
ACACAGCAAUAUUACGCCUA | -0.959 ± 0.065 | -0.392 ± 0.067
ACACAGCAAUAUUACGCGCU | -0.741 ± 0.059 | -0.491 ± 0.068
ACACAGCAAUAUUACGCUCU | -0.902 ± 0.069 | -0.159 ± 0.075
ACACAGCAAUAUUACGGCCG | -0.675 ± 0.095 | -0.395 ± 0.12
ACACAGCAAUAUUACGGCUA | -0.536 ± 0.071 | -0.218 ± 0.074
ACACAGCAAUAUUACGGUCC | -1.31 ± 0.073 | -0.868 ± 0.089
ACACAGCAAUAUUACGGUUC | -3.81 ± 0.14 | -2.03 ± 0.12
ACACAGCAAUAUUACGUAUC | -3.71 ± 0.15 | -2.8 ± 0.15
ACACAGCAAUAUUACGUAUG | -2.32 ± 0.076 | -1.9 ± 0.098
ACACAGCAAUAUUACGUCAC | -3.22 ± 0.16 | -2.86 ± 0.27
ACACAGCAAUAUUACGUCGU | -2.67 ± 0.11 | -1.58 ± 0.12
ACACAGCAAUAUUACGUCUC | -3.26 ± 0.099 | -1.25 ± 0.08
ACACAGCAAUAUUACGUCUG | -1.65 ± 0.055 | -0.547 ± 0.061
ACACAGCAAUAUUACGUGCA | -0.241 ± 0.051 | -0.395 ± 0.063

Sequence | self-splicing fitness (ln) (30 °C) | self-splicing fitness (ln) (37 °C)
ACACAGCAAUAUUACGUUAC | -3.18 ± 0.15 | -2.14 ± 0.17
ACAGAGCAAUAUUACGAAAG | -3.24 ± 0.19 | -1.46 ± 0.16
ACAGAGCAAUAUUACGAACG | -2.76 ± 0.19 | -1.45 ± 0.28
ACAGAGCAAUAUUACGACGC | -1.19 ± 0.13 | -0.298 ± 0.14
ACAGAGCAAUAUUACGAGUA |  | -2.34 ± 0.27
ACAGAGCAAUAUUACGAUAU | -3.55 ± 0.29 | -2.62 ± 0.32
ACAGAGCAAUAUUACGAUUG | -2.95 ± 0.26 | -3.3 ± 0.3
ACAGAGCAAUAUUACGAUUU | -3.03 ± 0.14 | -1.71 ± 0.13
ACAGAGCAAUAUUACGCAGU |  | -2.62 ± 0.4
ACAGAGCAAUAUUACGCCGA | -2.95 ± 0.48 | -2.76 ± 0.38
ACAGAGCAAUAUUACGCCUG |  | -1.94 ± 0.46
ACAGAGCAAUAUUACGCGUG | -1.81 ± 0.081 | -1.87 ± 0.1
ACAGAGCAAUAUUACGCUCC |  | -1.45 ± 0.42
ACAGAGCAAUAUUACGGAGG | -3.8 ± 0.33 | -1.39 ± 0.24
ACAGAGCAAUAUUACGGCUU | -3.27 ± 0.23 | -1.99 ± 0.18
ACAGAGCAAUAUUACGGUGU | -3.8 ± 0.15 | -3.02 ± 0.22
ACAGAGCAAUAUUACGUAGG | -3.59 ± 0.14 | -1.61 ± 0.13
ACAGAGCAAUAUUACGUCGC | -2.98 ± 0.31 | -3.02 ± 0.31
ACAGAGCAAUAUUACGUUCC | -2.89 ± 0.32 | -1.81 ± 0.34
ACAGAGCAAUAUUACGUUCU | -3.89 ± 0.26 | -3.29 ± 0.29
ACAGAGCAAUAUUACGUUUA | -3.01 ± 0.15 | -3.24 ± 0.23
ACAGAGCAAUAUUACGUUUG | -3.85 ± 0.25 | -3.07 ± 0.24
ACAUAGCAAUAUUACGAAGU | -2.67 ± 0.21 | -2.85 ± 0.23
ACAUAGCAAUAUUACGAAUC | -3.23 ± 0.2 | -2.78 ± 0.28

Sequence | self-splicing fitness (ln) (30 °C) | self-splicing fitness (ln) (37 °C)
ACAUAGCAAUAUUACGACAG | -1.46 ± 0.099 | -0.508 ± 0.11
ACAUAGCAAUAUUACGACCC | -0.944 ± 0.36 | -0.798 ± 0.32
ACAUAGCAAUAUUACGACGU | 0.079 ± 0.081 | 0.0804 ± 0.083
ACAUAGCAAUAUUACGACUA | -0.666 ± 0.11 | -0.473 ± 0.1
ACAUAGCAAUAUUACGAGGG | -3.52 ± 0.19 | -3.05 ± 0.29
ACAUAGCAAUAUUACGAUAA | -2.16 ± 0.13 | -1.72 ± 0.17
ACAUAGCAAUAUUACGAUGC | -3.16 ± 0.15 | -0.811 ± 0.12
ACAUAGCAAUAUUACGCAGU | -3.57 ± 0.28 | -2.84 ± 0.36
ACAUAGCAAUAUUACGCAUU | -3.32 ± 0.11 | -2.46 ± 0.13
ACAUAGCAAUAUUACGCGAC | -3.68 ± 0.42 | -0.813 ± 0.18
ACAUAGCAAUAUUACGGCAG | -1.29 ± 0.11 | -0.918 ± 0.16
ACAUAGCAAUAUUACGGCGA | -0.475 ± 0.09 | -0.0687 ± 0.1
ACAUAGCAAUAUUACGGGCA | -1.57 ± 0.11 | -1.76 ± 0.098
ACAUAGCAAUAUUACGGUGC | -3.84 ± 0.25 | -2.54 ± 0.21
ACAUAGCAAUAUUACGGUGG | -3.62 ± 0.14 | -2.14 ± 0.12
ACAUAGCAAUAUUACGGUUU | -2.13 ± 0.057 | -0.763 ± 0.071
ACAUAGCAAUAUUACGUACA | -2.25 ± 0.16 | -1.25 ± 0.12
ACAUAGCAAUAUUACGUAUA | -3.09 ± 0.22 | -1.78 ± 0.21
ACAUAGCAAUAUUACGUCGU | -2.92 ± 0.11 | -2.33 ± 0.13
ACAUAGCAAUAUUACGUGAU | -1.7 ± 0.061 | -1.2 ± 0.088
ACAUAGCAAUAUUACGUGCU | -0.99 ± 0.072 | -1.1 ± 0.085
ACCAAGCAAUAUUACGAAUC | -1.48 ± 0.18 | -1.4 ± 0.2
ACCAAGCAAUAUUACGACCC | -1.37 ± 0.096 | -0.181 ± 0.15
ACCAAGCAAUAUUACGACUC | -1.56 ± 0.17 | -0.459 ± 0.2

Sequence | self-splicing fitness (ln) (30 °C) | self-splicing fitness (ln) (37 °C)
ACCAAGCAAUAUUACGACUG | -1.11 ± 0.062 | -1.07 ± 0.099
ACCAAGCAAUAUUACGAUUG | -2.86 ± 0.13 | -3.02 ± 0.16
ACCAAGCAAUAUUACGCAGU | -3.71 ± 0.22 | -2.77 ± 0.28
ACCAAGCAAUAUUACGCGAG | -2.46 ± 0.076 | -1.27 ± 0.072
ACCAAGCAAUAUUACGCGUC | -3.45 ± 0.2 | -2.46 ± 0.22
ACCAAGCAAUAUUACGCUAC | -2.89 ± 0.13 | -0.773 ± 0.1
ACCAAGCAAUAUUACGCUUA | -1.86 ± 0.11 | -1.08 ± 0.11
ACCAAGCAAUAUUACGGAGG | -1.63 ± 0.12 | -1.8 ± 0.29
ACCAAGCAAUAUUACGGCAA | -0.915 ± 0.08 | -0.348 ± 0.099
ACCAAGCAAUAUUACGGGCC | -2.26 ± 0.085 | -2.07 ± 0.096
ACCAAGCAAUAUUACGGGUA | -1.98 ± 0.091 | -0.405 ± 0.072
ACCAAGCAAUAUUACGGUAA | -2.9 ± 0.14 | -2.02 ± 0.12
ACCAAGCAAUAUUACGGUAC | -3.83 ± 0.22 | -1.16 ± 0.15
ACCAAGCAAUAUUACGGUGU | -3.43 ± 0.11 | -2.18 ± 0.11
ACCAAGCAAUAUUACGGUUG | -3.21 ± 0.11 | -3.88 ± 0.23
ACCAAGCAAUAUUACGUACA | -1.46 ± 0.079 | -1.05 ± 0.085
ACCAAGCAAUAUUACGUCGG | -2.09 ± 0.074 | -1.36 ± 0.09
ACCAAGCAAUAUUACGUCUA | -1.29 ± 0.11 | -0.982 ± 0.1
ACCAAGCAAUAUUACGUUAG | -3.94 ± 0.17 | -2.83 ± 0.17
ACCCAGCAAUAUUACGACGA | -0.509 ± 0.084 | -0.36 ± 0.086
ACCCAGCAAUAUUACGACUA | -0.803 ± 0.082 | -0.765 ± 0.086
ACCCAGCAAUAUUACGACUC | -0.5 ± 0.061 | -0.482 ± 0.079
ACCCAGCAAUAUUACGAGAU | -1.72 ± 0.061 | -0.655 ± 0.073
ACCCAGCAAUAUUACGAGCU | -4.29 ± 0.21 | -2.17 ± 0.14

Source: the supplement of paper PMC7877785
